{"source": "patent US20160169873A1", "key": {"[1]": {"target": "glycoprotein on Barrett's esophagus derived CP-D (CP-18821) cells", "test": "cell edge tracking (mechanical deformation) by phase contrast microscopy on fixed CP-D cells, 20 ug/ml WGA, first order kinetics fit"}, "[2]": {"target": "glycoprotein on Barrett's esophagus derived CP-D (CP-18821) cells", "test": "cell edge tracking (mechanical deformation) by phase contrast microscopy on fixed CP-D cells, 5 ug/ml WGA, first order kinetics fit"}, "[3]": {"target": "SHEP1 cell (surface binding partners of WGA not named)", "test": "z-modulation FFT microscopy on a fixed SHEP1 cell, 10, 20 and 50 µg/ml WGA, first order kinetic model fit"}}, "data": [{"substance": "Wheat germ agglutinin (WGA) (from UniProt P10968 27-197)", "values": [{"measurement": "Kd", "setting": "[1]", "result": 21, "unit": "nM"}, {"measurement": "koff", "setting": "[1]", "result": 0.0029, "unit": "s⁻¹"}, {"measurement": "kon", "setting": "[1]", "result": 140000, "unit": "M⁻¹ s⁻¹"}, {"measurement": "Kd", "setting": "[2]", "result": 14, "unit": "nM"}, {"measurement": "koff", "setting": "[2]", "result": 0.00156, "unit": "s⁻¹"}, {"measurement": "kon", "setting": "[2]", "result": 109000, "unit": "M⁻¹ s⁻¹"}, {"measurement": "Kd", "setting": "[3]", "result": 125, "unit": "nM"}, {"measurement": "koff", "setting": "[3]", "result": 0.013, "unit": "s⁻¹"}, {"measurement": "kon", "setting": "[3]", "result": 14000, "unit": "M⁻¹ s⁻¹"}]}]}
